First the molecules themselves.
B1: Hairpin Ribozyme (parent)
chain: GUCCUCUUUCACGUGCGCGUGAAAGAGAGAAGUGAACCAGAGAAACACACGUUGUGGUAUAUUACCUGGUA

This series covers variants of B1. The series is described as follows: self-cleavage, relative activity (ratio to wild type); higher = more cleavage; co-transcriptional.
Turning to GUCCUCUUUCACGUGCGCGUGAAAGAGAGAAGUGAACCAGAGAAACACACGUUGUGUUAUACUACCUGGUA [G57U U62C], the self-cleavage turned out to be 0.158.

With GUCCUCUUUCACGUGCGCGUGAAAGAGAGAAGUGAACCAGAGAAACACACGUUGUGGAAUAUUACCUGUUA [U58A G69U], the self-cleavage stood at 0.175.

In the case of GUCCUCUUUCACGUGCGCGUGAAAGAGAGAAGUGAACCAGAGAAACACACGUUGUGCUAUAUUACCUCGUA [G57C G68C], the self-cleavage was determined as 0.21.

Turning to GUCCUCUUUCACGUGCGCGUGAAAGAGAGAAGUGAACCAGAGAAACACACGUUGUGCUAUAUUACCUAGUA [G57C G68A], the self-cleavage worked out at 0.195.

As to GUCCUCUUUCACGUGCGCGUGAAAGAGAGAAGUGAACCAGAGAAACACACGUUGUGGGAUAUUACCUCGUA [U58G G68C], the self-cleavage stood at 0.178.

As for GUCCUCUUUCACGUGCGCGUGAAAGAGAGAAGUGAACCAGAGAAACACACGUUGUGGGAUAUUACCUAGUA [U58G G68A], the self-cleavage came to 0.208.

On to GUCCUCUUUCACGUGCGCGUGAAAGAGAGAAGUGAACCAGAGAAACACACGUUGUGGAAUACUACCUGGUA [U58A U62C], for which the self-cleavage worked out at 0.12.

Turning to GUCCUCUUUCACGUGCGCGUGAAAGAGAGAAGUGAACCAGAGAAACACACGUUGUGUUAUAUUACCUGGUG [G57U A71G], the self-cleavage was determined as 0.254.

For GUCCUCUUUCACGUGCGCGUGAAAGAGAGAAGUGAACCAGAGAAACACACGUUGUGGGAUAUUACGUGGUA [U58G C66G], the self-cleavage came out at 0.379.

For GUCCUCUUUCACGUGCGCGUGAAAGAGAGAAGUGAACCAGAGAAACACACGUUGUGUUAUAUUACGUGGUA [G57U C66G], the self-cleavage was found to be 0.

Consider GUCCUCUUUCACGUGCGCGUGAAAGAGAGAAGUGAACCAGAGAAACACACGUUGUGGGAUAUUACCUGGGA [U58G U70G], for which the self-cleavage was determined as 0.575.

As to GUCCUCUUUCACGUGCGCGUGAAAGAGAGAAGUGAACCAGAGAAACACACGUUGUGCUACAUUACCUGGUA [G57C U60C], the self-cleavage was found to be 0.156.

With GUCCUCUUUCACGUGCGCGUGAAAGAGAGAAGUGAACCAGAGAAACACACGUUGUGGAAUAUUACCUGGUG [U58A A71G], the self-cleavage was found to be 0.768.

As for GUCCUCUUUCACGUGCGCGUGAAAGAGAGAAGUGAACCAGAGAAACACACGUUGUGGGAUAUGACCUGGUA [U58G U63G], the self-cleavage amounted to 0.104.

As for GUCCUCUUUCACGUGCGCGUGAAAGAGAGAAGUGAACCAGAGAAACACACGUUGUGGGAUAUUACCGGGUA [U58G U67G], the self-cleavage is 0.173.

Turning to GUCCUCUUUCACGUGCGCGUGAAAGAGAGAAGUGAACCAGAGAAACACACGUUGUGGUCUAUUACCUGUUA [A59C G69U], the self-cleavage is 0.131.

GUCCUCUUUCACGUGCGCGUGAAAGAGAGAAGUGAACCAGAGAAACACACGUUGUGGUCUAUUACCUGAUA [A59C G69A]: the self-cleavage amounted to 0.19.

For the variant GUCCUCUUUCACGUGCGCGUGAAAGAGAGAAGUGAACCAGAGAAACACACGUUGUGCUAUGUUACCUGGUA [G57C A61G], the self-cleavage stood at 0.0894.

For the variant GUCCUCUUUCACGUGCGCGUGAAAGAGAGAAGUGAACCAGAGAAACACACGUUGUGGCAUAUUUCCUGGUA [U58C A64U], the self-cleavage was determined as 0.0829.

For the variant GUCCUCUUUCACGUGCGCGUGAAAGAGAGAAGUGAACCAGAGAAACACACGUUGUGGCAUUUUACCUGGUA [U58C A61U], the self-cleavage was found to be 0.38.

Consider GUCCUCUUUCACGUGCGCGUGAAAGAGAGAAGUGAACCAGAGAAACACACGUUGUGAUAUAUUACCGGGUA [G57A U67G], for which the self-cleavage stood at 0.191.

Regarding GUCCUCUUUCACGUGCGCGUGAAAGAGAGAAGUGAACCAGAGAAACACACGUUGUGGAAUAUAACCUGGUA [U58A U63A], the self-cleavage is 0.14.

Consider GUCCUCUUUCACGUGCGCGUGAAAGAGAGAAGUGAACCAGAGAAACACACGUUGUGGCAGAUUACCUGGUA [U58C U60G], for which the self-cleavage turned out to be 0.742.

Turning to GUCCUCUUUCACGUGCGCGUGAAAGAGAGAAGUGAACCAGAGAAACACACGUUGUGGACUAUUACCUGGUA [U58A A59C], the self-cleavage was found to be 0.252.

For the variant GUCCUCUUUCACGUGCGCGUGAAAGAGAGAAGUGAACCAGAGAAACACACGUUGUGGAUUAUUACCUGGUA [U58A A59U], the self-cleavage came out at 0.183.

Turning to GUCCUCUUUCACGUGCGCGUGAAAGAGAGAAGUGAACCAGAGAAACACACGUUGUGAUAUAUUACCUGGAA [G57A U70A], the self-cleavage is 0.134.

Take GUCCUCUUUCACGUGCGCGUGAAAGAGAGAAGUGAACCAGAGAAACACACGUUGUGCGAUAUUACCUGGUA [G57C U58G]: the self-cleavage amounted to 0.277.

For the variant GUCCUCUUUCACGUGCGCGUGAAAGAGAGAAGUGAACCAGAGAAACACACGUUGUGCUAUAUUAGCUGGUA [G57C C65G], the self-cleavage was 0.154.

For GUCCUCUUUCACGUGCGCGUGAAAGAGAGAAGUGAACCAGAGAAACACACGUUGUGGGAUAUUAUCUGGUA [U58G C65U], the self-cleavage is 0.412.

As for GUCCUCUUUCACGUGCGCGUGAAAGAGAGAAGUGAACCAGAGAAACACACGUUGUGGGAUAUUAACUGGUA [U58G C65A], the self-cleavage worked out at 0.816.

With GUCCUCUUUCACGUGCGCGUGAAAGAGAGAAGUGAACCAGAGAAACACACGUUGUGCUAUAUUACCUGGGA [G57C U70G], the self-cleavage was 0.119.

In the case of GUCCUCUUUCACGUGCGCGUGAAAGAGAGAAGUGAACCAGAGAAACACACGUUGUGUUAUAUUACCUGAUA [G57U G69A], the self-cleavage turned out to be 0.149.

Regarding GUCCUCUUUCACGUGCGCGUGAAAGAGAGAAGUGAACCAGAGAAACACACGUUGUGGAAUAUUAGCUGGUA [U58A C65G], the self-cleavage was 0.0985.

With GUCCUCUUUCACGUGCGCGUGAAAGAGAGAAGUGAACCAGAGAAACACACGUUGUGGCAUAUUACCUGGUC [U58C A71C], the self-cleavage is 1.21.

Turning to GUCCUCUUUCACGUGCGCGUGAAAGAGAGAAGUGAACCAGAGAAACACACGUUGUGGGUUAUUACCUGGUA [U58G A59U], the self-cleavage was 0.242.

As to GUCCUCUUUCACGUGCGCGUGAAAGAGAGAAGUGAACCAGAGAAACACACGUUGUGGGCUAUUACCUGGUA [U58G A59C], the self-cleavage is 0.149.

For the variant GUCCUCUUUCACGUGCGCGUGAAAGAGAGAAGUGAACCAGAGAAACACACGUUGUGCUAUAUUGCCUGGUA [G57C A64G], the self-cleavage amounted to 0.126.

As to GUCCUCUUUCACGUGCGCGUGAAAGAGAGAAGUGAACCAGAGAAACACACGUUGUGGCAUAUUACCUGUUA [U58C G69U], the self-cleavage is 0.302.

Values taken from the RNAGym collection of RNA variant scans (doi:10.7554/elife.80360).
